Two substances from publication PMC3197488 can be followed below.

For series [1], the target named is P. aeruginosa single-stranded DNA-binding protein (P. aeruginosa) (UniProt P40947). The experiment in a line: AUC; sedimentation velocity; χψ titrated to 0.35 μM cognate SSB saturated with 12.3 μM poly(dT), low salt buffer, 22000 rpm, 20°C, 230 nm; model of n χψ per SSB tetramer.
The target is the same in series [2]. The experiment in a line: AUC; sedimentation velocity; χψ titrated to 6 μM SSB in high salt buffer, 50000 rpm, 20°C, 280 nm; free χψ from c(s); model of n independent χψ per SSB tetramer.
Series [3] concerns the target EcoSSB;Eco chi-psi complex (Escherichia coli;Escherichia coli LK111lambda) (UniProt P0AGE0+P28905+P28632). The experiment in a line: analytical ultracentrifugation (sedimentation velocity). The following applies: Low salt: 5 mM NaCl, 5 mM KPi pH 7.4, 0.87 M glycerol, 0.5 mM DTT; high salt: 0.3 M NaCl, 20 mM KPi pH 7.4, 0.5 mM DTT; AUC at 20 C; EMSA incubated 10 min at ….

In series [4] the target is T1, Pae chi-psi complex (DNA polymerase III) (Pseudomonas aeruginosa PAO1) (UniProt O68823).
T1 sequence: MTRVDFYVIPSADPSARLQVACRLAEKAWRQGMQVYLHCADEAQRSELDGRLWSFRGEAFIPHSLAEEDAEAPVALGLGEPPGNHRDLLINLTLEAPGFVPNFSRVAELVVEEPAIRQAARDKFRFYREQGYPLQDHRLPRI
Described as above. The following applies: Low salt: 5 mM NaCl, 5 mM KPi pH 7.4, 0.87 M glycerol, 0.5 mM DTT; high salt: 0.3 M NaCl, 20 mM KPi pH 7.4, 0.5 mM DTT; AUC at 20 C; EMSA incubated 10 min at …. Background: A gel shift assay detects complexes by their altered migration in electrophoresis.

The target in series [5] is PaeSSB;Pae chi-psi complex (DNA polymerase III) (Pseudomonas aeruginosa;Pseudomonas aeruginosa PAO1) (UniProt P40947+O68823). The series is described as above. To be noted: Low salt: 5 mM NaCl, 5 mM KPi pH 7.4, 0.87 M glycerol, 0.5 mM DTT; high salt: 0.3 M NaCl, 20 mM KPi pH 7.4, 0.5 mM DTT; AUC at 20 C; EMSA incubated 10 min at ….
PaeSSB;Pae chi-psi complex (DNA polymerase III) (Pseudomonas aeruginosa;Pseudomonas aeruginosa PAO1), sequence (P40947 2-165, one chain of several): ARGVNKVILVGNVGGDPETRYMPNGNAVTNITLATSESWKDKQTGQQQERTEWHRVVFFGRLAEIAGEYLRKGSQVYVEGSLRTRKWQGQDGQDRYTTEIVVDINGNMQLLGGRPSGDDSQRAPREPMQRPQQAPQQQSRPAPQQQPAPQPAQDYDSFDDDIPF

P. aeruginosa single-stranded DNA-binding protein (P. aeruginosa), sequence (P40947 whole entry): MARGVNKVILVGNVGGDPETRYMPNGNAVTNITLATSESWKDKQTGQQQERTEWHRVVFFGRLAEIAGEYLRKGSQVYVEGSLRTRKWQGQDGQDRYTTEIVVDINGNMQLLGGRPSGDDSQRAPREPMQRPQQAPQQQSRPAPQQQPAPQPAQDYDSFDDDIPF
EcoSSB;Eco chi-psi complex (Escherichia coli;Escherichia coli LK111lambda), sequence (P0AGE0 2-178, chain 1 of 3): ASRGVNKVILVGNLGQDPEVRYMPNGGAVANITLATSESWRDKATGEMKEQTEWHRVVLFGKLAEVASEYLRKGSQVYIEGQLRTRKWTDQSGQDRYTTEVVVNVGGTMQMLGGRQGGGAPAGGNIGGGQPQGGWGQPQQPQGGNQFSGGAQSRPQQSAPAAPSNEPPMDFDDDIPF
EcoSSB;Eco chi-psi complex (Escherichia coli;Escherichia coli LK111lambda), sequence (P28905 whole entry, chain 2 of 3): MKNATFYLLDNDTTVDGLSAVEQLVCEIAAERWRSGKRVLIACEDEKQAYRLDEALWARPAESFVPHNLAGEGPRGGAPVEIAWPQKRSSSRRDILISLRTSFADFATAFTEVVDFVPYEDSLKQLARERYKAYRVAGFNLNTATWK
EcoSSB;Eco chi-psi complex (Escherichia coli;Escherichia coli LK111lambda), sequence (P28632 whole entry, chain 3 of 3): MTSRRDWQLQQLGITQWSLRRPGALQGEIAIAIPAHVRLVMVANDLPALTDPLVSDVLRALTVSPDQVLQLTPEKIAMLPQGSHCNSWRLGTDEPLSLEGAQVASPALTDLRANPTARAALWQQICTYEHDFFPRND

Turning to “P. aeruginosa χψ complex (from UniProt O68823 1-142)”, in series [1], the Ka was > 5e+07 M⁻¹ and the stoichiometry N (χψ per SSB tetramer) was 2.2. In addition, in series [2], the Ka was found to be 130000 M⁻¹ and the stoichiometry N (χψ per SSB tetramer) is 2.2.
As for “TTTTTTTTTTTTTTTTTTTTTTTTTTTTTTTTTTTTTTTTTTTTTTTTTTTTTTTTTTTTTTTTTTTTTTTTTTTTTTTTTTTTTTTTTTTTTTTTTTTTTTTTTTTTTTTTTTTTTTTTTTTTTTTTTTTTTTTTTTTTTTTTTTTTTTTTTTTTTTTTTTTTTTTTTTTTTTTTTTTTTTTTTTTTTTTTTTTTTTTTTTTTTTTTTTTTTTTTTTTTTTTTTTTTTTTTTTTTTTTTTTTTTTTTTTTTTTTTTTTTTTTTTTTTTTTTTTTTTTTTTTTTTTTTTTTTTTTTTTTT [poly(dT)]”, the Ka is 6e+06 M⁻¹ in series [3], 500000 M⁻¹ in series [4] and > 5e+07 M⁻¹ in series [5].
